Laboratory results from patent US20250066456A1 (NOVAVAX, published 2025).

Assays:
[1] = target: BV2589 (recombinant CoV S glycoprotein, BQ.1.1) (SARS-CoV-2, UniProt P0DTC2 14-1273); test: ELISA on coated rS
[2] = target: BV2425 (recombinant CoV S glycoprotein, Alpha) (SARS-CoV-2, UniProt P0DTC2 14-1273); test: ELISA, plate coated with rS, serial dilution of the mAb, anti-mouse HRP, A450
[3] = target: BV2438 (recombinant CoV S glycoprotein, Beta) (SARS-CoV-2, UniProt P0DTC2 14-1273); test: as above
[4] = target: BV2443 (recombinant CoV S glycoprotein, Gamma) (SARS-CoV-2, UniProt P0DTC2 14-1273); test: as above
[5] = target: BV2465 (recombinant CoV S glycoprotein, Delta) (SARS-CoV-2, UniProt P0DTC2 14-1273); test: as above
[6] = target: BV2509 (recombinant CoV S glycoprotein, BA.1) (SARS-CoV-2, UniProt P0DTC2 14-1273); test: as above
[7] = target: Delta Plus CoV S glycoprotein (recombinant) (Severe acute respiratory syndrome …, UniProt P0DTC2 14-1273)
[8] = target: BV2541 (recombinant CoV S glycoprotein, BA.4) (SARS-CoV-2, UniProt P0DTC2 14-1273)
[9] = target: BV2562 (recombinant CoV S glycoprotein, BA.4.6) (SARS-CoV-2, UniProt P0DTC2 14-1273)

B1: 322.3 (antibody, V domains shown)
VH: RVQLQQSGPELVKPGASVTISCKASGYIFTSDYIHWVKQRPGQGPEWIGWIYPGNINTKYNEKFKGKATLTADKSSSTAYMQLSSLTSEDSAVYFCARDDGNLYYYAMDYWGQGTSVTVSS
VL: NIVLTQSPASLAVSLGQRATISCRASESVDSYGSSFMHWYQQKPGQPPKLLIYLASNLESGVPARFSGSGSRTDFTLTIDPVEADDAATYYCQQNNEDPRTFGGGTKLEIK
EC50 [1]: 0.077 µg/mL
EC50 [2]: 0.085 µg/mL
EC50 [3]: 0.084 µg/mL
EC50 [4]: 0.084 µg/mL
EC50 [5]: 0.082 µg/mL
EC50 [6]: 0.144 µg/mL

B2: 425.6 (antibody, V domains shown)
VH: VQLKQSGPSLVQPSQSLSITCTVSGFSLTSYGIHWVRQSPGKGLEWLGVIWRGGSTDYNAAFMSRLTITKDNSKSQVFFKMNSLQADDTAIYYCATHTEGDDVDYWGQGTSVTVSS
VL: QIVLTQSPAIMSVSPGEKVTMTCSASSTMSFMYWYQQKPGSSPRLLIYDTSNLASGVPVRFSGSGSGTSYSLTISRVEAEDAATYYCQQWNTYPLTFGAGTKLELKR
EC50 [7]: 0.0098 µg/mL

B3: 35.13 (antibody, V domains shown)
VH: QVQLQQSGAELGKPGASVKLSCRASGYTFTRYYIYWVKQRPGQGLEWIGEINPSNGDTHFNEKFKTKATLTVDKSSSSAHIHLTSLTSEDSAVYYCSIHAYSFDFWGQGTTLTVSS
VL: EIQMTQSPSSMSASLGDRITITCQATQDIVKNLNWYQQKPGKPPSFLIYHATELAKGVPSRFSGSGSGSDYSLTISNLESEDFADYYCLQFYDFPFTFGAGTKLELKR
IC50 [8]: > 3 µg/mL
IC50 [9]: > 3 µg/mL
